Assays:
[1] = target: T1, human GITR (amino acids M1-V241, NCBI Accession #NP_004186.1) expressed on cells (human, UniProt Q9Y5U5 26-241); assay: cell-based or functional assay
T1 sequence: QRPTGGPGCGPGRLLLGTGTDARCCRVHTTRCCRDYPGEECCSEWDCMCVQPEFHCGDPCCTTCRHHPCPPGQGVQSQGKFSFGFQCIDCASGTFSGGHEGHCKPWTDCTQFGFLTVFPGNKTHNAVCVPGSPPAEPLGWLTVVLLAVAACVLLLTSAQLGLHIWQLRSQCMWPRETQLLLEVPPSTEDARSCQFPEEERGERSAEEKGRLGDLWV

[2] = target: T1, human GITR (amino acids M1-V241, NCBI …); assay: cell-based or functional assay; remark: listed apart in the source
[3] = target: T1, human GITR (amino acids M1-V241, NCBI …); assay: cell-based or functional assay; remark: listed apart in the source
[4] = target: T1, human GITR (amino acids M1-V241, NCBI …); assay: cell-based or functional assay; remark: listed apart in the source
[5] = target: T2, mfGITR.mmh (Macaca fasicularis); assay: SPR 37C, mAb capture
T2 construct: soluble monomeric construct; also called Macaca fasicularis (mf) GITR.mmh; cynomolgus GITR protein
T2 chain: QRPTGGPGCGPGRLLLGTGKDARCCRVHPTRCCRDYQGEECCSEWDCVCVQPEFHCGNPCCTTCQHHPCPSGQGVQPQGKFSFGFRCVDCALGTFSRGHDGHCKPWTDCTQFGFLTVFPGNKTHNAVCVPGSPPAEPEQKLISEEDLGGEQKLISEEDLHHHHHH

[6] = target: T3, hGITR.mmh (human); assay: SPR 37C, mAb capture
T3 construct: soluble monomeric construct; also called human (h) GITR.mmh; monomeric human GITR
T3 chain: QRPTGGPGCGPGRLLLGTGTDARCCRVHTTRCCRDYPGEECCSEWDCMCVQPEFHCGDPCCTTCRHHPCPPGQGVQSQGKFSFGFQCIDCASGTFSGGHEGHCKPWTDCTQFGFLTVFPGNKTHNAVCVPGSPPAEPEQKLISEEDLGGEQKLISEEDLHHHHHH

[7] = target: T4, hGITR.mFc (human); assay: SPR 37C, mAb capture
T4 construct: soluble dimeric construct with mouse Fc; also called dimeric human GITR
T4 chain: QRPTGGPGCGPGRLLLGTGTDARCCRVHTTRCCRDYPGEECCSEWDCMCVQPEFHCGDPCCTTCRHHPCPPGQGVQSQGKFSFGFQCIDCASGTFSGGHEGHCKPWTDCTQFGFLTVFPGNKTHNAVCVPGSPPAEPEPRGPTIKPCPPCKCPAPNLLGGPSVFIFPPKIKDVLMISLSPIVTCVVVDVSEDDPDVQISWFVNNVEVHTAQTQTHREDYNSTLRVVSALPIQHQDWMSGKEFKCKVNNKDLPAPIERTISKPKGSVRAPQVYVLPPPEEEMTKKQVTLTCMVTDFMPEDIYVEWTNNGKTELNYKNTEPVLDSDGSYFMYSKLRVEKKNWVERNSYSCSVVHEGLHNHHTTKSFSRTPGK

[8] = target: T1, human GITR (amino acids M1-V241, NCBI …); assay: ECL cell binding, hGITR/HEK293-D9
In short: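 Cells blocked with 2% BSA, then antibody dilutions from 1.7 pM to 100 nM added 1 h at RT. Bound antibody detected with SULFO-TAG anti-human kappa antibody, electrochemiluminescence read, RLU fitted by four-parameter logistic; signal at 100 nM on hGITR cells versus parental cells also recorded.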

[9] = target: T1, human GITR (amino acids M1-V241, NCBI …); assay: cell-based or functional assay; remark: listed apart in the source

B1: H4H14516P (antibody, human IgG4, V domains shown)
VH: EVQLVESGGGLVQPGGSLRLSCAASGFTFSNYEMYWVRQAPGKGLEWVSYISSSGTTIYYADSVKGRFSVSRENARSSLYLQMNSLRVEDSAVYFCAKYNWNSFYGLDVWGQGTTVTVSS
VL: AIQMTQSPSSLSASVGDRVTITCRASQDIRNDLGWYQQKPGKAPKLLISAASSLQGGVPSRFSGSGSGTDFTLTISSLQPADFATYYCLQEYNYALTFGGGTKVEIK
notes: human IgG4 (H4H)
fold activation, T-cell proliferation, 22 nM, non-anchored, donor 1 [1]: 0.7 fold | fold activation, T-cell proliferation, 22 nM, non-anchored, donor 2 [1]: 1.2 fold | fold activation, T-cell proliferation, 22 nM, non-anchored, donor 3 [1]: 1 fold | fold activation, T-cell proliferation, 22 nM, non-anchored, donor 4 [1]: 0.9 fold | fold activation, T-cell proliferation, 22 nM, non-anchored, mean [1]: 0.9 fold | fold activation, T-cell proliferation, plate-bound Ab 10.6 nM, donor 1 [2]: 1 fold | fold activation, T-cell proliferation, plate-bound Ab 10.6 nM, donor 2 [2]: 4 fold | fold activation, T-cell proliferation, plate-bound Ab 10.6 nM, donor 3 [2]: 4 fold | fold activation, T-cell proliferation, plate-bound Ab 10.6 nM, donor 4 [2]: 12 fold | fold activation, T-cell proliferation, plate-bound Ab 10.6 nM, donor 5 [2]: 4 fold | fold activation, T-cell proliferation, plate-bound Ab 10.6 nM, donor 6 [2]: 14 fold | fold activation, T-cell proliferation, plate-bound Ab 10.6 nM, donor 7 [2]: 4 fold | fold activation, T-cell proliferation, plate-bound Ab 10.6 nM, donor 8 [2]: 1 fold | fold activation, T-cell proliferation, plate-bound Ab 10.6 nM, mean [2]: 5 fold | % Activation, NF-kB-Luc, non-anchored [3]: 45% | % Blocking, NF-kB-Luc, non-anchored [3]: 70% | EC50, hGITR activation, NF-kB-Luc, non-anchored [3]: 0.8 nM | IC50, blocking of hGITRL stimulation, NF-kB-Luc, non-anchored [3]: 2.3 nM | fold activation, T-cell proliferation, 33 nM, FcgR anchored, donor 1 [4]: 1.2 fold | fold activation, T-cell proliferation, 33 nM, FcgR anchored, donor 2 [4]: 0.9 fold | fold activation, T-cell proliferation, 33 nM, FcgR anchored, donor 3 [4]: 1.2 fold | fold activation, T-cell proliferation, 33 nM, FcgR anchored, donor 4 [4]: 1.3 fold | fold activation, T-cell proliferation, 33 nM, FcgR anchored, donor 5 [4]: 1.1 fold | fold activation, T-cell proliferation, 33 nM, FcgR anchored, mean [4]: 1.1 fold | Kd [5]: 58.7 nM | koff [5]: 0.0112 s⁻¹ | kon [5]: 190000 M⁻¹ s⁻¹ | t½ [5]: 1 min | Kd [6]: 32.7 nM | koff [6]: 0.00738 s⁻¹ | kon [6]: 225000 M⁻¹ s⁻¹ | t½ [6]: 1.6 min | Kd [7]: 1.08 nM | koff [7]: 0.00181 s⁻¹ | kon [7]: 1.68e+06 M⁻¹ s⁻¹ | t½ [7]: 6.4 min | Average Signal (RLU) at 100 nM [8]: 10300 RLU | EC50 [8]: 0.7 nM

B2: H1H14512P (antibody, human IgG1, V domains shown)
VH: QVQLVESGGGVVQPGRSLRLSCAVSGFTLSSYGMDWVRQAPGKGLEWVAVIWYDGSNKYYSDSVKGRFTISRDNSKNTLFLQMNSLRADDTAVYYCARDGELGLDYYSGMDVWGQGTTVTVSS
VL: DIQMTQSPSSLSASVGDRVTITCRASQDIRNDLGWYQQKPGKAPKRLIYGASSLQSGVPSRFSGSGSGTEFTLTISSLQPEDFATYYCLQLNSYPRTFGQGTKVEIK
notes: human IgG1 (H1H)
EC50, hGITR activation, NF-kB-Luc, FcgR anchored [9]: 0.02 nM | Fold Activation over basal signal, NF-kB-Luc, FcgR anchored [9]: 7 fold | IC50, blocking of hGITRL stimulation, NF-kB-Luc, FcgR anchored [9]: 0.1 nM | % Activation, NF-kB-Luc, non-anchored [3]: 20% | % Blocking, NF-kB-Luc, non-anchored [3]: 100% | EC50, hGITR activation, NF-kB-Luc, non-anchored [3]: 1.2 nM | IC50, blocking of hGITRL stimulation, NF-kB-Luc, non-anchored [3]: 0.7 nM | Average Signal (RLU) at 100 nM [8]: 4620 RLU | EC50 [8]: 0.25 nM

B3: H4H14475P (antibody, human IgG4, V domains shown)
VH: QVQLVESGGGVVQPGRSLRLSCAASGTIFSTHGMHWVRQAPGKGLEWVAVISYDGNKKYYAGSVKGRFTISRDNSKNTLYLQMNDVRSEDTAVYHCTTDITGITDYWGQGTLVTVSS
VL: DIQMTQSPSSLSASVGDRVTITCRASQGIGNDLGWYQQKLGKAPKRLIYAASSLESGVPSRFSGSGSGTEFILTISSLQAEDFATYYCLQHNGFPTFGQGTKVEIK
notes: human IgG4 (H4H)
fold activation, T-cell proliferation, 22 nM, non-anchored, donor 1 [1]: 0.7 fold | fold activation, T-cell proliferation, 22 nM, non-anchored, donor 2 [1]: 1.1 fold | fold activation, T-cell proliferation, 22 nM, non-anchored, donor 3 [1]: 0.8 fold | fold activation, T-cell proliferation, 22 nM, non-anchored, donor 4 [1]: 0.8 fold | fold activation, T-cell proliferation, 22 nM, non-anchored, mean [1]: 0.9 fold | fold activation, T-cell proliferation, plate-bound Ab 10.6 nM, donor 1 [2]: 0 fold | fold activation, T-cell proliferation, plate-bound Ab 10.6 nM, donor 2 [2]: 2 fold | fold activation, T-cell proliferation, plate-bound Ab 10.6 nM, donor 3 [2]: 2 fold | fold activation, T-cell proliferation, plate-bound Ab 10.6 nM, donor 4 [2]: 2 fold | fold activation, T-cell proliferation, plate-bound Ab 10.6 nM, donor 5 [2]: 2 fold | fold activation, T-cell proliferation, plate-bound Ab 10.6 nM, donor 6 [2]: 12 fold | fold activation, T-cell proliferation, plate-bound Ab 10.6 nM, donor 7 [2]: 1 fold | fold activation, T-cell proliferation, plate-bound Ab 10.6 nM, donor 8 [2]: 0 fold | fold activation, T-cell proliferation, plate-bound Ab 10.6 nM, mean [2]: 3 fold | EC50, hGITR activation, NF-kB-Luc, FcgR anchored [9]: 0.04 nM | Fold Activation over basal signal, NF-kB-Luc, FcgR anchored [9]: 8 fold | IC50, blocking of hGITRL stimulation, NF-kB-Luc, FcgR anchored [9]: 0.2 nM | % Activation, NF-kB-Luc, non-anchored [3]: 70% | % Blocking, NF-kB-Luc, non-anchored [3]: -2% | EC50, hGITR activation, NF-kB-Luc, non-anchored [3]: 1 nM | fold activation, T-cell proliferation, 33 nM, FcgR anchored, donor 1 [4]: 1 fold | fold activation, T-cell proliferation, 33 nM, FcgR anchored, donor 2 [4]: 1.3 fold | fold activation, T-cell proliferation, 33 nM, FcgR anchored, donor 3 [4]: 1.3 fold | fold activation, T-cell proliferation, 33 nM, FcgR anchored, donor 4 [4]: 1.6 fold | fold activation, T-cell proliferation, 33 nM, FcgR anchored, donor 5 [4]: 1.5 fold | fold activation, T-cell proliferation, 33 nM, FcgR anchored, mean [4]: 1.3 fold | Kd [5]: 41.7 nM | koff [5]: 0.00765 s⁻¹ | kon [5]: 183000 M⁻¹ s⁻¹ | t½ [5]: 1.5 min | Kd [6]: 45.7 nM | koff [6]: 0.014 s⁻¹ | kon [6]: 307000 M⁻¹ s⁻¹ | t½ [6]: 0.8 min | Kd [7]: 0.847 nM | koff [7]: 0.00135 s⁻¹ | kon [7]: 1.6e+06 M⁻¹ s⁻¹ | t½ [7]: 8.5 min | Average Signal (RLU) at 100 nM [8]: 7500 RLU | EC50 [8]: 8 nM

Source: US20170355774A1 (Regeneron, published 2017)
